{"source": "paper PMC4092016", "about": "“Molecular Characterization of the Na^+/H^+-Antiporter NhaA from Salmonella Typhimurium” (PLoS ONE, 2014)", "proteins": {"B1": {"name": "Na+/H+ antiporter NhaA from Salmonella enterica serovar Typhimurium LT2, recombinant with carboxy-terminal hexahistidine tag (natural protein)", "chain": "NLGILKHLHRFFSSDASGGIILIIAAALAMLMANMGATSGWYHDFLETPVQLRVGALEINKNMLLWINDALMAVFFLLIGLEVKRELMQGSLASLRQAAFPVIAAIGGMIVPALLYLAFNYSDPVTREGWAIPAATDIAFALGVLALLGSRVPLALKIFLMALAIIDDLGAIVIIALFYTSDLSIVSLGVAAFAIAVLALLNLCGVRRTGVYILVGAVLWTAVLKSGVHATLAGVIVGFFIPLKEKHGRSPAKRLEHVLHPWVAYLILPLFAFANAGVSLQGVTIDGLTSMLPLGIIAGLLIGKPLGISLFCWLALRFKLAHLPQGTTYQQIMAVGILCGIGFTMSIFIASLAFGNVDPELINWAKLGILIGSLLSAVVGYSWLRARLNAPA", "notes": "five residues that the expression construct adds at the amino-terminus; Na+/H+ antiporter NhaA, S. Typhimurium LT2, wild type; coding region (nhaA, STM0039) amplified from genomic DNA; calculated mass of the construct 44.01 kDa; Integral membrane protein, held in β-DDM detergent; also called STNhaA; STNhaA-His6; source: E. coli NM554 (pTTQ18A1-STNhaA-His6), membranes solubilized in β-DDM, …"}}, "target": "the molecule itself", "experiment": "SEC-MALS; SEC-MALLS with refractive index and UV280 monitoring; two coupled Superdex 200 5/15 columns; 10 mM MES pH 6, 150 mM NaCl, 0.03% β-DDM; 80 µg IMAC-purified STNhaA; protein conjugate analysis separating protein and detergent mass", "data": [{"protein": "B1", "values": [{"measurement": "stoichiometry N", "value": 2}]}]}
